Experimental data: paper PMC9482650, “Quantitative fragmentomics allow affinity mapping of interactomes” (Nature Communications, 2022)

Key:
Experiment in all cases: holdup assay
Design in all cases: key: below the threshold = too weak to quantify, mostly under pKd 3.1 to 4
GIPC2, Q8TF65 = biological target: GIPC2, Q8TF65
MPDZ_5, O75970 = biological target: T1, MPDZ_5, O75970
T1 sequence (O75970 695-796, limits assumed, looked up): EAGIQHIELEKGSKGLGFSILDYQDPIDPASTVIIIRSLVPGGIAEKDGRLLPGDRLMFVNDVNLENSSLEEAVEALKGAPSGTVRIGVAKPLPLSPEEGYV

CARD11, Q9BXL7 = biological target: T2, CARD11, Q9BXL7
T2 sequence (Q9BXL7 662-765, limits assumed, looked up): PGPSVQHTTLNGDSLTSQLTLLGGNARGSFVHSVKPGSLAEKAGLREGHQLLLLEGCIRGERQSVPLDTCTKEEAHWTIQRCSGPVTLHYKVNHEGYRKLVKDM

LIN7A, O14910 = biological target: T3, LIN7A, O14910
T3 sequence (O14910 103-200, limits assumed, looked up): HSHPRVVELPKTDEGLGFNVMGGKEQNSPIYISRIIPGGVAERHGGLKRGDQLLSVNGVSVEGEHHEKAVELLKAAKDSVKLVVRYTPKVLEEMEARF

Inadl_8, Q8NI35 = biological target: Inadl_8, Q8NI35
Inadl_8, Q8NI35, sequence (Q8NI35 1425-1530): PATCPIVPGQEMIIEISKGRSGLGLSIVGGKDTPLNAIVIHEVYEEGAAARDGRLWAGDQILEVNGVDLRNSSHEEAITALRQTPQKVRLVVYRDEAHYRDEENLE

APBA3_1, O96018 = biological target: T4, APBA3_1, O96018
T4 sequence (O96018 389-490, limits assumed, looked up): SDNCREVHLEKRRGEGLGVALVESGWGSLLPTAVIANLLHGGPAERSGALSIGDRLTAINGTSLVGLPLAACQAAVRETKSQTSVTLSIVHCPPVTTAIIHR

NHERF4_2, Q86UT5 = biological target: NHERF4_2, Q86UT5
NHERF4_2, Q86UT5, sequence (Q86UT5 220-308): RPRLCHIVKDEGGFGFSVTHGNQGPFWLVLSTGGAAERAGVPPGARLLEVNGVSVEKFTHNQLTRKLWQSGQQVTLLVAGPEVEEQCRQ

PARD3B_1, Q8TEW8 = biological target: T5, PARD3B_1, Q8TEW8
T5 sequence (Q8TEW8 196-299, limits assumed, looked up): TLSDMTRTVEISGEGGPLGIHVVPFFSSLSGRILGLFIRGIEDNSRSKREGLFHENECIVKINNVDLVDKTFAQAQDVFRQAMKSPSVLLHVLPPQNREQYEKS

Inadl_6, Q8NI35 = biological target: Inadl_6, Q8NI35
Inadl_6, Q8NI35, sequence (Q8NI35 1058-1167): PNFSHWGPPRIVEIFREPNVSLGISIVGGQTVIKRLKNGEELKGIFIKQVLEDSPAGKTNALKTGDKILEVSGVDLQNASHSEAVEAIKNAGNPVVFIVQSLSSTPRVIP

MAGI2_6, Q86UL8 = biological target: MAGI2_6, Q86UL8
MAGI2_6, Q86UL8, sequence (Q86UL8 1141-1229): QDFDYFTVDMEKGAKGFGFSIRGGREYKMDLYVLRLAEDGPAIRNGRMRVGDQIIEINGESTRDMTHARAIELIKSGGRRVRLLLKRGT

DLG1_2, Q12959 = biological target: DLG1_2, Q12959
DLG1_2, Q12959, sequence (Q12959 314-412): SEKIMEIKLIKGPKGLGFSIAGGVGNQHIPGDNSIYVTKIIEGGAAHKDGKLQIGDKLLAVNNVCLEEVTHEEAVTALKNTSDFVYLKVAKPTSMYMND

FRMPD2_3, Q68DX3 = biological target: FRMPD2_3, Q68DX3
FRMPD2_3, Q68DX3, sequence (Q68DX3 1073-1166): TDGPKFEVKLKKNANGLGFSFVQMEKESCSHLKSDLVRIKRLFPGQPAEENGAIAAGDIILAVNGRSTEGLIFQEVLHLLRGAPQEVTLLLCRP

TJP2_1, Q9UDY2 = biological target: TJP2_1, Q9UDY2
TJP2_1, Q9UDY2, sequence (Q9UDY2 24-128): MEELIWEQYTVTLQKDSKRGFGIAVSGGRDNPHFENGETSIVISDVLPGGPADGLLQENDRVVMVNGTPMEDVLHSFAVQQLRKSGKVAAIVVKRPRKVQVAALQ

DLG2_2, Q15700 = biological target: DLG2_2, Q15700
DLG2_2, Q15700, sequence (Q15700 189-283): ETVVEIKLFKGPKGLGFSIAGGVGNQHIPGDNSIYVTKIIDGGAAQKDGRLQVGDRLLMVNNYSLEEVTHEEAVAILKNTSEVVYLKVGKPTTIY

MPP7, Q5T2T1 = biological target: T6, MPP7, Q5T2T1
T6 sequence (Q5T2T1 134-230, limits assumed, looked up): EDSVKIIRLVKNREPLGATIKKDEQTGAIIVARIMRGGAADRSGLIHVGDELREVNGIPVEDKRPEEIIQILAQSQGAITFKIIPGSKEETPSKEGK

MAGI1_1, Q96QZ7 = biological target: MAGI1_1, Q96QZ7
MAGI1_1, Q96QZ7, sequence (Q96QZ7 1-106): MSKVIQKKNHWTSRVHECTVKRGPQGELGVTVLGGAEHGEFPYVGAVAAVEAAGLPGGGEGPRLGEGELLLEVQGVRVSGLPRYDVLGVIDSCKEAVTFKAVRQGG

LNX1_2, Q8TBB1 = biological target: LNX1_2, Q8TBB1
LNX1_2, Q8TBB1, sequence (Q8TBB1 371-470): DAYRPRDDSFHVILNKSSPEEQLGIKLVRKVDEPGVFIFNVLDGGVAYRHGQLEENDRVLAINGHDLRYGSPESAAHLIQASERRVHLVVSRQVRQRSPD

MAGI2_2, Q86UL8 = biological target: MAGI2_2, Q86UL8
MAGI2_2, Q86UL8, sequence (Q86UL8 410-522): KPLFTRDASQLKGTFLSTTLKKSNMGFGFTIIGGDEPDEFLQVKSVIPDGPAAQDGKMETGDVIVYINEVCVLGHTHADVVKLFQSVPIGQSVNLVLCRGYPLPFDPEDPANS

GRIP1_5, Q9Y3R0 = biological target: T7, GRIP1_5, Q9Y3R0
T7 sequence (Q9Y3R0 568-668, limits assumed, looked up): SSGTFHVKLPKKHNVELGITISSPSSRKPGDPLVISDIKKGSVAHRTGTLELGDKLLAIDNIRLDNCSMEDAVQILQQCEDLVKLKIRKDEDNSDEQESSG

GRIP1_2, Q9Y3R0 = biological target: T8, GRIP1_2, Q9Y3R0
T8 sequence (Q9Y3R0 145-248, limits assumed, looked up): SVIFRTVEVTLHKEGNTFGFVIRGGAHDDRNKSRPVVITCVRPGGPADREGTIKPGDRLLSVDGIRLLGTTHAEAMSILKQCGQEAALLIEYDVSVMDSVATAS

GRIP2_7, Q9C0E4 = biological target: GRIP2_7, Q9C0E4
GRIP2_7, Q9C0E4, sequence (Q9C0E4 934-1023): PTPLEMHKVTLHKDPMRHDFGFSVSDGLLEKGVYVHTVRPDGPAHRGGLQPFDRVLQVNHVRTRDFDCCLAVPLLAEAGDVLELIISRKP

LIN7B, Q9HAP6 = biological target: T9, LIN7B, Q9HAP6
T9 sequence (Q9HAP6 88-185, limits assumed, looked up): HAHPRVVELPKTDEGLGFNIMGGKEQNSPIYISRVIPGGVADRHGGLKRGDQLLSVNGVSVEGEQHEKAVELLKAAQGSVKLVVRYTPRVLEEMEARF

GRIP1_4, Q9Y3R0 = biological target: T10, GRIP1_4, Q9Y3R0
T10 sequence (Q9Y3R0 467-571, limits assumed, looked up): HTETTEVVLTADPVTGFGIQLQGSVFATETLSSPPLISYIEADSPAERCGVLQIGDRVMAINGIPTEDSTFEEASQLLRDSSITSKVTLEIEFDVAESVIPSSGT

MPDZ_10, O75970 = biological target: T11, MPDZ_10, O75970
T11 sequence (O75970 1624-1722, limits assumed, looked up): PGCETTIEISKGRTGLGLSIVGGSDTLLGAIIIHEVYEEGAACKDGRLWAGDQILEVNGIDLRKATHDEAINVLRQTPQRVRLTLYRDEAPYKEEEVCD

GRIP2_6, Q9C0E4 = biological target: GRIP2_6, Q9C0E4
GRIP2_6, Q9C0E4, sequence (Q9C0E4 648-740): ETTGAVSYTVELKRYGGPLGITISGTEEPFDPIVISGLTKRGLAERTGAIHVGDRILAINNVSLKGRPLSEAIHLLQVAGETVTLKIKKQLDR

[1] = plain residues with an end cap or a label only (N-terminal biotin on a linker: ttds)
[2] = plain residues with an end cap or a label only (N-terminal biotin on a linker: ahx)

GIPC2, Q8TF65, sequence (Q8TF65 112-203): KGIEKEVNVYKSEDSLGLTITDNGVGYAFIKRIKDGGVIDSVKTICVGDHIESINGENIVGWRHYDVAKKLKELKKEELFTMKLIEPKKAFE

## KLVIKTETTV [RASSF6, Q6ZTQ3]
GIPC2, Q8TF65; [1]
  pKd: below the threshold
MPDZ_5, O75970; [1]
  pKd: below the threshold
CARD11, Q9BXL7; [1]
  pKd: below the threshold
LIN7A, O14910; [1]
  pKd: 3.65
Inadl_8, Q8NI35; [1]
  pKd: below the threshold
APBA3_1, O96018; [1]
  pKd: below the threshold
NHERF4_2, Q86UT5; [1]
  pKd: below the threshold
PARD3B_1, Q8TEW8; [1]
  pKd: below the threshold
Inadl_6, Q8NI35; [1]
  pKd: below the threshold
MAGI2_6, Q86UL8; [1]
  pKd: below the threshold
DLG1_2, Q12959; [1]
  pKd: 5.55
FRMPD2_3, Q68DX3; [1]
  pKd: below the threshold
TJP2_1, Q9UDY2; [1]
  pKd: below the threshold
DLG2_2, Q15700; [1]
  pKd: 5.24
MPP7, Q5T2T1; [1]
  pKd: below the threshold
MAGI1_1, Q96QZ7; [1]
  pKd: below the threshold
LNX1_2, Q8TBB1; [1]
  pKd: 3.66
MAGI2_2, Q86UL8; [1]
  pKd: 5.11
GRIP1_5, Q9Y3R0; [1]
  pKd: below the threshold
GRIP1_2, Q9Y3R0; [1]
  pKd: below the threshold
GRIP2_7, Q9C0E4; [1]
  pKd: below the threshold
LIN7B, Q9HAP6; [1]
  pKd: 3.81
GRIP1_4, Q9Y3R0; [1]
  pKd: below the threshold
MPDZ_10, O75970; [1]
  pKd: below the threshold
GRIP2_6, Q9C0E4; [1]
  pKd: below the threshold

## PFRSRSPSEV [GPR6, P46095]
GIPC2, Q8TF65; [1]
  pKd: below the threshold
MPDZ_5, O75970; [1]
  pKd: below the threshold
CARD11, Q9BXL7; [1]
  pKd: below the threshold
LIN7A, O14910; [1]
  pKd: below the threshold
Inadl_8, Q8NI35; [1]
  pKd: 4.04
APBA3_1, O96018; [1]
  pKd: below the threshold
NHERF4_2, Q86UT5; [1]
  pKd: below the threshold
PARD3B_1, Q8TEW8; [1]
  pKd: 3.8
Inadl_6, Q8NI35; [1]
  pKd: below the threshold
MAGI2_6, Q86UL8; [1]
  pKd: below the threshold
DLG1_2, Q12959; [1]
  pKd: 3.87
FRMPD2_3, Q68DX3; [1]
  pKd: below the threshold
TJP2_1, Q9UDY2; [1]
  pKd: below the threshold
DLG2_2, Q15700; [1]
  pKd: below the threshold
MPP7, Q5T2T1; [1]
  pKd: below the threshold
MAGI1_1, Q96QZ7; [1]
  pKd: below the threshold
LNX1_2, Q8TBB1; [1]
  pKd: below the threshold
MAGI2_2, Q86UL8; [1]
  pKd: below the threshold
GRIP1_5, Q9Y3R0; [1]
  pKd: below the threshold
GRIP1_2, Q9Y3R0; [1]
  pKd: 3.52
GRIP2_7, Q9C0E4; [1]
  pKd: below the threshold
LIN7B, Q9HAP6; [1]
  pKd: below the threshold
GRIP1_4, Q9Y3R0; [1]
  pKd: below the threshold
MPDZ_10, O75970; [1]
  pKd: below the threshold
GRIP2_6, Q9C0E4; [1]
  pKd: below the threshold

## YNSFLSVTTV [PDZRN3, Q9UPQ7]
GIPC2, Q8TF65; [2]
  pKd: below the threshold
MPDZ_5, O75970; [2]
  pKd: below the threshold
CARD11, Q9BXL7; [2]
  pKd: below the threshold
LIN7A, O14910; [2]
  pKd: below the threshold
Inadl_8, Q8NI35; [2]
  pKd: 4.3
APBA3_1, O96018; [2]
  pKd: below the threshold
NHERF4_2, Q86UT5; [2]
  pKd: below the threshold
PARD3B_1, Q8TEW8; [2]
  pKd: below the threshold
Inadl_6, Q8NI35; [2]
  pKd: below the threshold
MAGI2_6, Q86UL8; [2]
  pKd: 3.6
DLG1_2, Q12959; [2]
  pKd: 4.19
FRMPD2_3, Q68DX3; [2]
  pKd: below the threshold
TJP2_1, Q9UDY2; [2]
  pKd: below the threshold
DLG2_2, Q15700; [2]
  pKd: 3.98
MPP7, Q5T2T1; [2]
  pKd: below the threshold
MAGI1_1, Q96QZ7; [2]
  pKd: below the threshold
LNX1_2, Q8TBB1; [2]
  pKd: 4.23
MAGI2_2, Q86UL8; [2]
  pKd: 3.95
GRIP1_5, Q9Y3R0; [2]
  pKd: below the threshold
GRIP1_2, Q9Y3R0; [2]
  pKd: below the threshold
GRIP2_7, Q9C0E4; [2]
  pKd: below the threshold
LIN7B, Q9HAP6; [2]
  pKd: below the threshold
GRIP1_4, Q9Y3R0; [2]
  pKd: below the threshold
MPDZ_10, O75970; [2]
  pKd: 3.96
GRIP2_6, Q9C0E4; [2]
  pKd: below the threshold

## SHSSKGETAV [FZD7, O75084]
GIPC2, Q8TF65; [1]
  pKd: 3.62
MPDZ_5, O75970; [1]
  pKd: below the threshold
CARD11, Q9BXL7; [1]
  pKd: 3.67
LIN7A, O14910; [1]
  pKd: below the threshold
Inadl_8, Q8NI35; [1]
  pKd: below the threshold
APBA3_1, O96018; [1]
  pKd: below the threshold
NHERF4_2, Q86UT5; [1]
  pKd: below the threshold
PARD3B_1, Q8TEW8; [1]
  pKd: 3.52
Inadl_6, Q8NI35; [1]
  pKd: below the threshold
MAGI2_6, Q86UL8; [1]
  pKd: 4.43
DLG1_2, Q12959; [1]
  pKd: 4.78
FRMPD2_3, Q68DX3; [1]
  pKd: 3.46
TJP2_1, Q9UDY2; [1]
  pKd: below the threshold
DLG2_2, Q15700; [1]
  pKd: 4.55
MPP7, Q5T2T1; [1]
  pKd: below the threshold
MAGI1_1, Q96QZ7; [1]
  pKd: below the threshold
LNX1_2, Q8TBB1; [1]
  pKd: below the threshold
MAGI2_2, Q86UL8; [1]
  pKd: 4.67
GRIP1_5, Q9Y3R0; [1]
  pKd: below the threshold
GRIP1_2, Q9Y3R0; [1]
  pKd: below the threshold
GRIP2_7, Q9C0E4; [1]
  pKd: below the threshold
LIN7B, Q9HAP6; [1]
  pKd: below the threshold
GRIP1_4, Q9Y3R0; [1]
  pKd: below the threshold
MPDZ_10, O75970; [1]
  pKd: below the threshold
GRIP2_6, Q9C0E4; [1]
  pKd: 3.58
